A word on the stoichiometry N: it is a count of units in the complex or per binding partner.

Stoichiometry N and stoichiometry N (AcrIIA19 per Cas9) data for one substance are collected here from paper PMC12855784.

Common to all, as to test: SEC-MALS
For orientation: SEC sorts molecules by how far they enter the pores of the column.

In test [1] the target is AcrIIA19 (full length, C-terminal 6×His tag) (Staphylococcus pseudintermedius).
In test [2] the target is Streptococcus pyogenes Cas9, full length, 6×His tagged (Streptococcus pyogenes) (UniProt Q99ZW2).
UniProt Q99ZW2, sequence (Q99ZW2 whole entry): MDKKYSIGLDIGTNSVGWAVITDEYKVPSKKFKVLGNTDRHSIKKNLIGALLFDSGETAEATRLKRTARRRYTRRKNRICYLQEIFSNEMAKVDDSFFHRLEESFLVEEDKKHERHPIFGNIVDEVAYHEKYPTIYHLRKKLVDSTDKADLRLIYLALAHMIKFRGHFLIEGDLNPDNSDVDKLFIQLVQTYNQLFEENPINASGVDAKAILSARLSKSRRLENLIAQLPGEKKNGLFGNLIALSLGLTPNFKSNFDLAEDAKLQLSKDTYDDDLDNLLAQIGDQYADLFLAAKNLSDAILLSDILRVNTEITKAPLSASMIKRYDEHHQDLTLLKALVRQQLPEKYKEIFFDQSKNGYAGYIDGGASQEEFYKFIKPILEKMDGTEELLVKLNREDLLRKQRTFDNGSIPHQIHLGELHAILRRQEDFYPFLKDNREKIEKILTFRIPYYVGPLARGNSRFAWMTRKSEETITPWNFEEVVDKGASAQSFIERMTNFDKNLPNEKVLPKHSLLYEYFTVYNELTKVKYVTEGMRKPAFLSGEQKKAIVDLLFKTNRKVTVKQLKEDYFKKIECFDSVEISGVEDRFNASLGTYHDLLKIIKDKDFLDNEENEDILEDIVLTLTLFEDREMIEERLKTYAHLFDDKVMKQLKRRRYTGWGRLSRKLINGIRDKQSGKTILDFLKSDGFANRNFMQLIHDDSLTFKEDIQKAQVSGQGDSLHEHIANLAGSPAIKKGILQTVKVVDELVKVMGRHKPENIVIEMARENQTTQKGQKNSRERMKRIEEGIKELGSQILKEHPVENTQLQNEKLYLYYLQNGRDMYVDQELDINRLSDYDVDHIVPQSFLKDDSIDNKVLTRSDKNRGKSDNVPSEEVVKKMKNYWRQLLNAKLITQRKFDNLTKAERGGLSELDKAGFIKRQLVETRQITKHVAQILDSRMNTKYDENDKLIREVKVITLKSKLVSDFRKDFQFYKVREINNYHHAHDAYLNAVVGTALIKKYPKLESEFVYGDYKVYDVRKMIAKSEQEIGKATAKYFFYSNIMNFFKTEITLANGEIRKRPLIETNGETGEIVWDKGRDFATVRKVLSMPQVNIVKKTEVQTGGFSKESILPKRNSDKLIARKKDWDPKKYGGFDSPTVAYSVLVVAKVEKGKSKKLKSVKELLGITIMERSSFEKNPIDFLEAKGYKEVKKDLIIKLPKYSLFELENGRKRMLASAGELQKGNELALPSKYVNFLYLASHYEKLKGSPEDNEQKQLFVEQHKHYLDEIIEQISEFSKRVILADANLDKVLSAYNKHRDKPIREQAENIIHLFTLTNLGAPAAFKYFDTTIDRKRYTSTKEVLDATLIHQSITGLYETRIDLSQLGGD
The target in test [3] is AcrIIA19 (full length, C-terminal 6×His tag) (Staphylococcus pseudintermedius). This is another data set of the same source.

Read-outs that look alike come from different tables or passages of the source.

As to “AcrIIA19 (full length, C-terminal 6×His tag) (natural protein)”, the stoichiometry N in test [1] and in test [3] was 2 throughout. Moreover, the stoichiometry N (AcrIIA19 per Cas9) in test [2] was found to be 1.
